Substrate in this series: CC(=O)C(=O)O
As to the kind of experiment: purified protein. Format: biochemical, Phocaeicola vulgatus. The note with it: 250 μM NADH, 100 mM K-phosphate pH 7, 37 °C.

B1: D-LDH (BVU_2499) (Phocaeicola vulgatus ATCC 8482) (protein)
chain: AYKIAFYDTKPYDERSFTEANEKFGFDIRYYKGHLNMNNVVLTKGVDVVCIFVNDTADAEVIRAMADNGVKLLALRCAGYNNVDLAATAGKMKVVRVPAYSPYAVAEFTVALMLSLNRKIPRATMRTRDGNFSLHGLMGFDMHGKTAGIIGTGKIAKILIQILRGFGMNVLAYDLYPDYNFAREHQVVYCTLDELYHSSDIISLHCPLTEQTKYLINDYSISKMKDGVMIINTGRGQLIHTNALIEGLKTKKVGYAGLDVYEEEEPYFYEDKSDKIIDDDTLARLLSFNNVIVTSHQAFFTKEAMTNIAHTTLQNVKDFAESRSLVNEVAVGRV
notes: full-length ldh in pASK-IBA5, N-terminal Strep-tag kept (no cleavage told), E. coli DH5alpha, Strep-Tactin purified
As to B1, the Km (in general, the concentration of substrate that gives half-maximal velocity) is 1400 ± 100 µM.

These data come from paper PMC8816746, “Genetic tools for the redirection of the central carbon flow towards the production of lactate in the human gut bacterium Phocaeicola (Bacteroides) vulgatus” (Applied Microbiology and Biotechnology, 2022).
